1 protein from publication PMC11947285 (Nature Communications, 2025) can be followed below.

The data set deals with the molecule itself. The data set is described as follows: cryo-EM structure.

B1: human XPR1 (Xenotropic and polytropic retrovirus receptor 1) (natural protein, UniProt Q9UBH6-1 1-696, looked up)
chain: MKFAEHLSAHITPEWRKQYIQYEAFKDMLYSAQDQAPSVEVTDEDTVKRYFAKFEEKFFQTCEKELAKINTFYSEKLAEAQRRFATLQNELQSSLDAQKESTGVTTLRQRRKPVFHLSHEERVQHRNIKDLKLAFSEFYLSLILLQNYQNLNFTGFRKILKKHDKILETSRGADWRVAHVEVAPFYTCKKINQLISETEAVVTNELEDGDRQKAMKRLRVPPLGAAQPAPAWTTFRVGLFCGIFIVLNITLVLAAVFKLETDRSIWPLIRIYRGGFLLIEFLFLLGINTYGWRQAGVNHVLIFELNPRSNLSHQHLFEIAGFLGILWCLSLLACFFAPISVIPTYVYPLALYGFMVFFLINPTKTFYYKSRFWLLKLLFRVFTAPFHKVGFADFWLADQLNSLSVILMDLEYMICFYSLELKWDESKGLLPNNSEESGICHKYTYGVRAIVQCIPAWLRFIQCLRRYRDTKRAFPHLVNAGKYSTTFFMVTFAALYSTHKERGHSDTMVFFYLWIVFYIISSCYTLIWDLKMDWGLFDKNAGENTFLREEIVYPQKAYYYCAIIEDVILRFAWTIQISITSTTLLPHSGDIIATVFAPLEVFRRFVWNFFRLENEHLNNCGEFRAVRDISVAPLNADDQTLLEQMMDQDDGVRNRQKNRSWKYNQSISLRRPRLASQSKARDTKVLIEDTDDEANT
By stoichiometry N is commonly meant a count of units in the complex or per binding partner. For the protein B1, the “stoichiometry N” value stood at 2.
